Results reported in patent US20020150993A1 (Genentech, published 2002).

B3: CD95 immunoadhesin (Fc fusion, UniProt P25445 26-173, looked up)
chain: QVTDINSKGLELRKTVTTVETQNLEGLHHDGQFCHKPCPPGERKARDCTVNGDEPDCVPCQEGKEYTDKAHFSSKCRRCRLCDEGHGLEVEINCTRTQNTKCRCKPNFFCNSTVCEHCDPCTKCEHGIIKECTLTSNTKCKEEGSRSN
notes: extracellular domain; also called Fas-IgG; CD95-IgG; not shown: hinge and Fc portion of human IgG, as described in Ashkenazi et al. 1991
B4: full-length DNA19355 polypeptide on cells (ligand)
chain: MCLSHLENMPLSHSRTQGAQRSSWKLWLFCSIVMLLFLCSFSWLIFIFLQLETAKEPCMAKFGPLPSKWQMASSEPPCVNKVSDWKLEILQNGLYLIYGQVAPNANYNDVAPFEVRLYKNKDMIQTLTNKSKIQNVGGTYELHVGDTIDLIFNSEHQVLKNNTYWGIILLANPQFIS
notes: also called DNA19355 ligand; polypeptide encoded by DNA19355-1150

Tests used:
[1] = target: B4; experiment: FACS on 293 cells transiently transfected with full-length DNA19355
Description: In another assay, human 293 cells were transiently transfected with full-length DNA19355 and the ability of receptor immunoadhesin constructs for PRO364, TNFR1, HVEM, and DcR1 to t bind to those transfected cells was determined by FACS analysis. The 293 cells were maintained in high glucose DMEM media supplemented with 10% fetal bovine serum (FBS), 2 mM glutamine, 100 microgram/ml penicillin, and 100 microgram/ml streptomycin. The transfected cells (1×10⁵) were incubated for 60 minutes at 4° C. in 200 microliters 2% FBS/PBS with 1 microgram of the respective receptor or ligand immunoadhesin. The cells were then washed with 2% FBS/PBS, stained with R-phycoerythrin-conjugated goat anti-human antibody (Jackson Immunoresearch, West Grove, Pa.). Next, the cells were analyzed by FACS. To test the binding of the respective immunoadhesins to the transiently transfected cells, an expression vector (pRK5-CD4; Smith et al., Science, 328:1704-1707 (1987)) for CD4 was co-transfected with DNA19355 expression vector (see above). FITC-conjugated anti-CD4 (Pharmingen, San Diego, Calif.) was then used to identify and gate the transfected cell population in the FACS analysis.

CD95 immunoadhesin = target: B3; experiment: co-precipitation with protein A-sepharose, SDS-PAGE, autoradiography
Description: (§1) The soluble DNA19355 ECD molecule was then labeled with […], for testing its ability to interact with the PRO364 immunoadhesin. For comparison, immunoadhesin constructs were also made of the following TNF receptor family members: CD95, DR4, DR5, TNFR1, TNFR2, and Apo-3. CD95, DR4, DR5, TNFR1, TNFR2, and Apo-3 immunoadhesins were prepared by fusing each receptor's ECD to the hinge and Fc portion of human IgG, as described previously for TNFR1 [Ashkenazi et al., Proc. Natl. Acad. Sci., 88:10535-10539 (1991)]. The respective TNF receptor family members are described (and relevant references cited) in the Background of the Invention section.
(§2) For the co-precipitation assay, each immunoadhesin (5 microgram) was incubated with ¹²⁵I-labeled soluble DNA19355 polypeptide (1 microgram) for 1 hour at 24° C., followed by protein A-sepharose for 30 minutes on ice. The reaction mixtures were spun down and washed several times in PBS, boiled in SDS-PAGE buffer containing 20 mM dithiothreitol and then resolved by SDS-PAGE and autoradiography.

DR4 immunoadhesin = target: T1, DR4 immunoadhesin (human, UniProt O00220 24-239, limits assumed); experiment: as above
T1 construct: extracellular domain; also called DR4-IgG; not shown: hinge and Fc portion of human IgG, as described in Ashkenazi et al. 1991
T1 sequence (looked up): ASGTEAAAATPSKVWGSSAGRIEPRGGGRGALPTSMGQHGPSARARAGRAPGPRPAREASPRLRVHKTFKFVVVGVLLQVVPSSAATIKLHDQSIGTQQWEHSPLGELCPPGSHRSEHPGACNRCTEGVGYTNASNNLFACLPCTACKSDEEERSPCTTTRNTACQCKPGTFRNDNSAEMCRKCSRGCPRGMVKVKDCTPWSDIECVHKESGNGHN
Description: as §1, §2

DR5 immunoadhesin = target: T2, DR5 immunoadhesin (human, UniProt O14763 56-210, limits assumed); experiment: as above
T2 construct: extracellular domain; also called DR5-IgG; Apo-2; not shown: hinge and Fc portion of human IgG, as described in Ashkenazi et al. 1991
Description: as §1, §2

TNFR1 immunoadhesin [2] = target: T3, TNFR1 immunoadhesin (human, UniProt P19438 30-211, limits assumed); experiment: as above
T3 construct: extracellular domain; also called TNFR1-IgG; not shown: hinge and Fc portion of human IgG, as described in Ashkenazi et al. 1991
T3 sequence (looked up): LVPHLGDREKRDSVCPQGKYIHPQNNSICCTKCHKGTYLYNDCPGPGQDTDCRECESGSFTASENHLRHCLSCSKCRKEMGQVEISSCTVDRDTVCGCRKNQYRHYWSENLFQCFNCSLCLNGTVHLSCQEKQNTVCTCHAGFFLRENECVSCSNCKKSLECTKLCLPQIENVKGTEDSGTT
Description: as §1, §2

TNFR2 immunoadhesin = target: T4, TNFR2 immunoadhesin (human, UniProt P20333 23-257, limits assumed); experiment: as above
T4 construct: extracellular domain; also called TNFR2-IgG; not shown: hinge and Fc portion of human IgG, as described in Ashkenazi et al. 1991
T4 sequence (looked up): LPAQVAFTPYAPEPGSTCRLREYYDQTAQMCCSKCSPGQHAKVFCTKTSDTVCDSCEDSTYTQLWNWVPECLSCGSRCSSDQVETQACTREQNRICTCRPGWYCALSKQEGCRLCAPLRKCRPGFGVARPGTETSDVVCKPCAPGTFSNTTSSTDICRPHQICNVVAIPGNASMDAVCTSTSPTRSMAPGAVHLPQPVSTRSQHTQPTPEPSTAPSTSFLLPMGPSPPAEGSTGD
Description: as §1, §2

Apo-3 immunoadhesin = target: T5, Apo-3 immunoadhesin (human, UniProt Q93038 25-199); experiment: as above
T5 construct: extracellular domain; also called Apo-3-IgG; DR3; not shown: hinge and Fc portion of human IgG, as described in Ashkenazi et al. 1991
T5 sequence (looked up): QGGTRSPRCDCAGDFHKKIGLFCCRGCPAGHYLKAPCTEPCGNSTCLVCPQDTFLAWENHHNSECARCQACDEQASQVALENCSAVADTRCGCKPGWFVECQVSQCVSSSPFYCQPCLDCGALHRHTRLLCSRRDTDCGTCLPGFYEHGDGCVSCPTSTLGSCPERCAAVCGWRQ
Description: as §1, §2

[3] = target: B4; experiment: FACS on HUVEC (endogenous DNA19355 transcripts)
Description: (§3) The DNA19355 polypeptide was identified in a human umbilical vein endothelial cell (HUVEC) library, and the DNA19355 polypeptide transcripts are readily detectable in HUVEC by RT-PCR (data not shown). […] HUVEC were purchased from Cell Systems (Kirkland, Wash.) and grown in a 50:50 mix of Ham's F12 and Low Glucose DMEM media containing […] fetal bovine serum, 2 mM L-glutamine, 10 mM Hepes, and 10 ng/ml basic FGF. Cells were FACS sorted with PBS, PRO364-IgG, TNFR1-IgG or Fas-IgG as a primary antibody and goat anti-human F(ab′)2 conjugated to phycoerythrin (CalTag, Burlingame, Calif.).

TNFR1 immunoadhesin [4] = target: T3, TNFR1 immunoadhesin; experiment: FACS on HUVEC (endogenous DNA19355 transcripts)
Description: as §3

B1: PRO364-IgG (PRO364 extracellular domain immunoadhesin) (Fc fusion)
chain: QRPTGGPGCGPGRLLLGTGTDARCCRVHTTRCCRDYPGEECCSEWDCMCVQPEFHCGDPCCTTCRHHPCPPGQGVQSQGKFSFGFQCIDCASGTFSGGHEGHCKPWTDCTQFGFLTVFPGNKTHNAVCVPGSPPAE
notes: Expressed in insect cells with Baculovirus; also called PRO364 immunoadhesin; PRO364 ECD C-terminus IgG-Fc tagged form; not shown: IgG Fc fused at the C-terminus
binding result [1]: binds

B2: soluble DNA19355 polypeptide (ECD, His10-tagged, 125I-labeled) (ligand)
chain: MGHHHHHHHHHHSSGHIDDDDKHMETAKEPCMAKFGPLPSKWQMASSEPPCVNKVSDWKLEILQNGLYLIYGQVAPNANYNDVAPFEVRLYKNKDMIQTLTNKSKIQNVGGTYELHVGDTIDLIFNSEHQVLKNNTYWGIILLANPQFIS
modifications: 125I-labeled (radioiodinated)
notes: Expressed in E. coli and purified on Nickel-sepharose; Removal of the tag is not reported; also called soluble DNA19355 ECD molecule; radioiodinated DNA19355 polypeptide
binding result (CD95 immunoadhesin): no binding | binding result (DR4 immunoadhesin): no binding | binding result (DR5 immunoadhesin): no binding | binding result (TNFR1 immunoadhesin [2]): no binding | binding result (TNFR2 immunoadhesin): no binding | binding result (Apo-3 immunoadhesin): no binding

B3
binding result [3]: no binding

B4
binding result (TNFR1 immunoadhesin [4]): no binding
